In US20070224188A1 one finds FcRn pH6.0 (% of wild type) and FcRn6.0 (% of wild type) data, which are given here for 40 substances.

This experiment addresses biotin-labeled soluble FcRn. As to the kind of experiment: FcRn ELISA pH 6.0. On the technique in general: ELISA stands for enzyme-linked immunosorbent assay.
anti-CD20 IgG1 E430P (antibody): the FcRn pH6.0 (% of wild type) turned out to be 86.

anti-CD20 IgG1 D376N (antibody) displayed a FcRn pH6.0 (% of wild type) of 94.

As to anti-CD20 IgG1 T256R (antibody), the FcRn pH6.0 (% of wild type) was found to be 33. With anti-CD20 IgG1 Q311L (antibody), the FcRn pH6.0 (% of wild type) worked out at 186.

Turning to anti-CD20 IgG1 I332G (antibody), the FcRn pH6.0 (% of wild type) was 94.

Substance anti-CD20 IgG1 E283A (antibody) showed a FcRn pH6.0 (% of wild type) of 126. Same read-out and setting: under anti-CD20 IgG1 T256A (antibody) stands 160; under anti-CD20 IgG1 N434F (antibody), 1010; under anti-CD20 IgG1 A378D (antibody), 163. Substance anti-CD20 IgG1 256P311I (antibody) had a FcRn6.0 (% of wild type) of 268. With anti-CD20 IgG1 E430Q (antibody), the FcRn pH6.0 (% of wild type) was 320. As for anti-CD20 IgG1 P247E (antibody), the FcRn pH6.0 (% of wild type) was 52. Substance anti-CD20 IgG1 K439E (antibody) showed a FcRn pH6.0 (% of wild type) of 94. As for anti-CD20 IgG1 V279K (antibody), the FcRn pH6.0 (% of wild type) came to 79.

anti-CD20 IgG1 H268E (antibody) displayed a FcRn pH6.0 (% of wild type) of 126. Regarding anti-CD20 IgG1 P238E (antibody), the FcRn pH6.0 (% of wild type) came out at 76. In the case of anti-CD20 IgG1 279D307E (antibody), the FcRn6.0 (% of wild type) amounted to 522. anti-CD20 IgG1 D270K (antibody) registered a FcRn pH6.0 (% of wild type) of 122. On the same count and under the same terms, the same measure for anti-CD20 IgG1 T250K (antibody): 96.

Turning to anti-CD20 IgG1 D376L (antibody), the FcRn pH6.0 (% of wild type) was 78. Same read-out and setting: the same measure for anti-CD20 IgG1 E272N (antibody): 110.

anti-CD20 IgG1 Q311K (antibody): the FcRn pH6.0 (% of wild type) was found to be 165. In turn, anti-CD20 IgG1 Q311A (antibody) yielded a FcRn pH6.0 (% of wild type) of 139. On the same count and under the same terms, under anti-CD20 IgG1 S254V (antibody) stands 31; under anti-CD20 IgG1 I377G (antibody), 76. Still for that read-out and setting: under anti-CD20 IgG1 P343A (antibody) stands 110. The same measure, in the same setting: under anti-CD20 IgG1 A339H (antibody) stands 107; under anti-CD20 IgG1 P238Y (antibody), 74.

anti-CD20 IgG1 258D307E (antibody) displayed a FcRn6.0 (% of wild type) of 237. Substance anti-CD20 IgG1 272R283R (antibody) had a FcRn6.0 (% of wild type) of 439.

anti-CD20 IgG1 L251F (antibody) came in with a FcRn pH6.0 (% of wild type) of 64. On the same count and under the same terms, under anti-CD20 IgG1 G341D (antibody) stands 52; under anti-CD20 IgG1 S440K (antibody), 132.

For anti-CD20 IgG1 P247M (antibody), the FcRn pH6.0 (% of wild type) was found to be 18. For the substance anti-CD20 IgG1 S254Y (antibody), the FcRn pH6.0 (% of wild type) was 0. As to anti-CD20 IgG1 I332H (antibody), the FcRn pH6.0 (% of wild type) was determined as 129. The same measure, in the same setting: under anti-CD20 IgG1 S254G (antibody) stands 7.

anti-CD20 IgG1 E283W (antibody) came in with a FcRn pH6.0 (% of wild type) of 117.

In turn, anti-CD20 IgG1 S426L (antibody) gave a FcRn pH6.0 (% of wild type) of 117. The same measure, in the same setting: under anti-CD20 IgG1 K248A (antibody) stands 15.
